The values that follow come from PMC5018465 (Biochimica et biophysica acta, 2016).

The data set concerns the molecule itself. Kind of data set: SEC-MALS.

B1: αAΔ70–76 deletion mutant of human αA-crystallin (natural protein, UniProt P02489 1-173, looked up)
chain: MDVTIQHPWFKRTLGPFYPSRLFDQFFGEGLFEYDLLPFLSSTISPYYRQSLFRTVLDSGISEVRSDRDVKHFSPEDLTVKVQDDFVEIHGKHNERQDDHGYISREFHRRYRLPSNVDQSALSCSLSADGMLTFCGPKIQTGLDATHAERAIPVSREEKPTSAPSS
Take B1: the binding result is recorded as “binds”.

B2: αAΔ70–88 deletion mutant of human αA-crystallin (natural protein, UniProt P02489 1-173, looked up)
chain: MDVTIQHPWFKRTLGPFYPSRLFDQFFGEGLFEYDLLPFLSSTISPYYRQSLFRTVLDSGISEVRSDRDVQDDFVEIHGKHNERQDDHGYISREFHRRYRLPSNVDQSALSCSLSADGMLTFCGPKIQTGLDATHAERAIPVSREEKPTSAPSS
Consider B2, for which the binding result is “binds”.
